In US20240076398A1:

How the values were obtained:
[1] = biological target: human C5aR1 (complement component 5a receptor 1) (human) (UniProt P21730); experiment: flow cytometry, Expi293 with transient human C5aR1, secondary antibody alone; mock 3,052
[2] = biological target: human C5aR1 (complement component 5a receptor 1) (human) (UniProt P21730); experiment: flow cytometry, Expi293 with transient human C5aR1, 100 nM antibody; mock 3,722

Chain of human C5aR1 (complement component 5a receptor 1) (human) (P21730 other isoform, or with tags, fused parts or gaps): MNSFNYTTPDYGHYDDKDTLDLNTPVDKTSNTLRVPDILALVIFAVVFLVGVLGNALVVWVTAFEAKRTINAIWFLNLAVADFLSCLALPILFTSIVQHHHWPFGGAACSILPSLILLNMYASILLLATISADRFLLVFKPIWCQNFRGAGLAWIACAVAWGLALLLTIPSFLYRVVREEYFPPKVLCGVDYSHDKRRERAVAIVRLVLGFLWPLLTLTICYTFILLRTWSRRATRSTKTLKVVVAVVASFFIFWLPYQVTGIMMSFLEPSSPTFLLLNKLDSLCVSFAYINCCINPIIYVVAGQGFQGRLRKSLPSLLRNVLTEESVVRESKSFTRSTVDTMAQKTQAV

Substance: Anti-human-APC secondary antibody alone
- geometric mean fluorescent intensity [1]: 5350

Substance: Isotype control (Table 6) (antibody)
- geometric mean fluorescent intensity [2]: 6550
